From PMC6478609

Molecular target: TRPM8FA with the Ala805→Gly mutation (TRPM8_(FA_AG)) (collared flycatcher Ficedula albicollis) (UniProt U3JD03)
Experiment: cryo-EM structure

With “TRPM8FA with the Ala805→Gly mutation (TRPM8_(FA_AG)) (from UniProt U3JD03 1-1115) (natural protein)” as the substance, how does the stoichiometry N read?
Its stoichiometry N is 4.
